Columns and labels:
[1] = biological target: T1, human CD8α full-length protein (human, UniProt P01732 22-235); assay: flow cytometry on MC38-CD8α cells, secondary antibody-PE
T1 construct: whole, on cells; The same entry is used for MC38-CD8α transfectants and for human CD8+ T cells from peripheral blood; the assay field says which cells; also called cell surface CD8α; MC38-CD8α cells
Experimental: Mouse colon cancer MC38 cell lines stable transfected with human CD8α full-length protein gene were constructed to obtain MC38 cells (MC38-CD8α cells) stably expressing human CD8α proteins on the cell membrane. Prior to use, the cells were cultured to >90% convergence. The anti-CD8α single domain antibody was used to perform flow cytometry on these cells for quantitative analysis of indirect immunofluorescence staining so as to determine the quantity of receptors on surface of each cell.
The cells were collected and suspended to a concentration of 2.5×10⁶ cells/mL. 200 μL of cell aliquot samples were mixed with 20 μL of primary antibody, and the obtained mixture was incubated for 30 min on ice. The cells were centrifuged, washed and re-suspended, then 5 μL of secondary antibody-PE conjugate was added, and then the above mixture was incubated for 30 minutes on ice. The cells were washed twice, re-suspended and underwent flow cytometry on BD FACSCelesta™. For each tube, at least 5×10⁴ events were collected. All the analyses were single colors, and PE was detected in […].

CD8α-Fc fusion protein [2] = biological target: T2, CD8α-Fc fusion protein (human); assay: ELISA on coated CD8α-Fc, anti-his-HRP, four-parameter fit
T2 construct: also called CD8 α-Fc protein; CD8α-Fc tag antigen
Experimental: (§1) The CD8 α-Fc protein was transiently expressed by HEK293 and purified by protein A affinity chromatography. The plate was coated with the obtained CD8α-Fc protein in a concentration of 0.5 μg/well at 4° C. overnight, and then the gradient dilution series of the obtained anti-CD8α single domain antibody protein was added to react for 1 hour at room temperature. After washing, anti-his horseradish peroxidase labeled antibody was added to react for 1 hour at room temperature. After washing, a chromogenic solution was added, and an absorption value at 450 nm was read. The data processing and plotting analysis were performed by using software SotfMaxPro v5.4. […] Of the 10 selected antibodies (see Table 5 for details), the relative activities of different anti-CD8α single domain antibodies were compared by using C2-cHis as control, so as to reflect the affinity of the antibodies on CD8α. Of the 10 tested antibodies, C37, C42, C46, S5 and S36 have relatively high binding activity.

CD8α-Fc fusion protein [3] = biological target: T2, CD8α-Fc fusion protein; assay: ELISA on coated CD8α-Fc, relative to C2-cHis control
Experimental: as §1

CD8α-cHis fusion protein = biological target: T3, CD8α-cHis fusion protein (UniProt P01732 22-182); assay: BLI (ForteBio Octet), biotinylated antibody on SA sensor, CD8α-chis 6.25-100 nM
T3 construct: not shown: C-terminal His tag
Experimental: The anti-CD8α single domain antibody-biontin was fixed on an SA biological sensor. Then, CD8α-chis with a concentration of 6.25-100 nM bound to a nano antibody and then dissociated. The binding dynamic variables of four antibodies C37, C42, C46 and S5 were evaluated and determined by using Octet Data Analysis version 9.0, including Kon, Koff and Kd.

[4] = biological target: T1, human CD8α full-length protein; assay: radioligand saturation binding on MC38-CD8 cells, 4 °C, one-site fit
Experimental: Receptor binding reaction: a radioligand saturation method was used, total binding and non-specific binding groups were included.
The cells were incubated for 2 h at 4° C. After that, the supernatant was extracted, the cells were washed 6 times with PBS pre-cooled at 4° C., and 200 μL of PBS was added into each well every time. Finally, the filter membrane was collected, the radioactivity count of each tube of sample and standard sample was measured on the γ counter. Finally, saturation curve fitting was performed by using Prism 7.0 (GraphPad Software, Inc.) software according to the single-point binding model, and then KD and Bmax were calculated.

T2 sequence (chain, as listed by the source): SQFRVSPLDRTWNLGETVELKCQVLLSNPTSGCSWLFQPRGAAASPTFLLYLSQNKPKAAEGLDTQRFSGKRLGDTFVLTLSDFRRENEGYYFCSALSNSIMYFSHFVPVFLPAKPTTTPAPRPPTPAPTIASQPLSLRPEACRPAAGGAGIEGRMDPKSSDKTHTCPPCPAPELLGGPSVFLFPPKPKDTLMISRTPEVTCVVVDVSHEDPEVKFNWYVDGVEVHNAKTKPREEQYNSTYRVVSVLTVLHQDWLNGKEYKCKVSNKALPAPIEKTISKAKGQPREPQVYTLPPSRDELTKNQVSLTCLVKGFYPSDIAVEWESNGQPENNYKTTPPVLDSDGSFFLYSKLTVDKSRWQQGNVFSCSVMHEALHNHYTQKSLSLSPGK
T1 sequence (P01732 22-235): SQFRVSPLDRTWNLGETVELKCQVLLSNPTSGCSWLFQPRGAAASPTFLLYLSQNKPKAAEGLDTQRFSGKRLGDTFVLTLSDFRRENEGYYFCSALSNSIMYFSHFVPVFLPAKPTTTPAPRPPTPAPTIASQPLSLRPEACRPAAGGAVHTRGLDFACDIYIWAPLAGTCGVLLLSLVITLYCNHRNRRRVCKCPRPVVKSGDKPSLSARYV
T3 sequence (P01732 22-182): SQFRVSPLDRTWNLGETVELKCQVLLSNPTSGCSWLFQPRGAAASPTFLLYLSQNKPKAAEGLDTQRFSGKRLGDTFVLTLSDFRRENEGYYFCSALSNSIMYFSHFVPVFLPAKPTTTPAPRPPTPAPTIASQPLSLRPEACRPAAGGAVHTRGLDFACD

| Positive rate (%) [1] | EC50 (CD8α-Fc fusion protein [2]) | Relative activity (%) (CD8α-Fc fusion protein [3]) | Kd (CD8α-cHis fusion protein) | koff (CD8α-cHis fusion protein) | kon (CD8α-cHis fusion protein) | Kd [4] | Binder |
| --- | --- | --- | --- | --- | --- | --- | --- |
| 99.7% | 1.42 ng/mL | 289% |  |  |  |  | S36-cHis antibody (VHH, HEK293 construct; an E. coli preparation is also described) VHH: QVQLVESGGGLVQAGGSLRLSCAASIRTFSDYAMAWFRQGPRKEREFVAAISWNGVTTFYADSVKGRFTISRDDAKNSVYLQMNSLKPEDTAVYYCAGGLNVGWGTHEREYDDWGQGTQVTVSS |
| 98.4% | 3.55 ng/mL | 61.9% |  |  |  |  | C29-cHis antibody (VHH, HEK293 construct; an E. coli preparation is also described) VHH: QVQLVESGGGLVQAGGSLRLSCVASGFTSDDYVIGWFRQAPGKEREGVSCISSSDGTTNYADSVKGRFTISSDNAKNTVYLQMNSLKPEDTAVYYCAADPMRVCPYSGTYYGILGFGTSGQGTQVTVSS |
| 96.3% | 2.89 ng/mL | 142% |  |  |  |  | S13-cHis antibody (VHH, HEK293 construct; an E. coli preparation is also described) VHH: QLQLVESGGGLVQPGGSLRLSCVVSGSIFAINTMGWYRQAPGKQRELVATMHSYGSTNYADSVKGRFTISRDNAKKTVYLQMNSLKPADTAVYYCHADDTGWGTVDSWGQGTQVTVSS |
| 99.4% | 4.59 ng/mL | 47.9% |  |  |  |  | C24-cHis antibody (VHH, HEK293 construct; an E. coli preparation is also described) VHH: QVQLVESGGGLVQPGGSLRLSCAASGPIFSINTMGWYRQAPGKQRELVATMHSTGSTNYADSVKGRFTISRDNAKKTVYLQMNSLKPDDTAVYYCHVDDTGWGTVDSWGQGIQVTVSS |
| 93.6% | 2.28 ng/mL | 96.4% |  |  |  |  | C27-cHis antibody (VHH, HEK293 construct; an E. coli preparation is also described) VHH: QLQLVESGGGLVQPGGSLRLSCVVSGSIFAINTMGWYRQAPGKQRELVATMHSGGSTNYADSVKGRFTISRDAAPKTVYLQMNSLKPADTAVYYCHADDSGWGTVDSWGQGIQVTVSS |
| 99.9% | 1.18 ng/mL | 269% | 727 pM | 0.00042 s⁻¹ | 578000 M⁻¹ s⁻¹ |  | C42-cHis antibody (VHH, HEK293 construct; an E. coli preparation is also described; Biotinylated for the ForteBio assay; also called SNA006b; SNA006-b) VHH: QVQLVESGGGLVQAGGSLRLSCAASGLTFEDYAIGWFRQAPGKEREGISCIRIYDGNTYSAESVKGRFTISSDNAKNQVYLQINTLKPEDTAVYYCAAGSYYSCSVYPDYDMDYWGKGTLVTVSS |
|  |  |  |  |  |  | 460 pM | ^125I-SNA006a (VHH, 125I label by the chloramine T method; labelled residues not stated) VHH: QLQLVESGGGLVQAGGSLRLSCAASGLTFEDYAIGWFRQAPGKEREGISCIRIYDGNTYSAESVKGRFTISSDNAKNQVYLQINTLKPEDTAVYYCAAGSYYSCSVYPDYDMDYWGKGTLVTVSS |
|  |  |  |  |  |  | 1500 pM | ^125I-SNA006d (VHH, 125I label by the chloramine T method; labelled residues not stated) VHH: QVQLVESGGGLVQAGGSLRVSCAASGGTFSSTAMGWFRQAPGKEREFVAAISWSGGYTYYADSVRGRFTISRDNALNTVSLQMNSLKPEDTAVYYCAADISGLDTVAAGIFTEPNIDYWGKGTLVTVSS |

Source: patent US20240209089A1 (SUZHOU SMARTNUCLIDE BIOPHARMACEUTICAL, published 2024)
